This is an account of results in PMC12228687, “Harnessing protein language model for structure-based discovery of highly efficient and robust PET hydrolases” (Nature Communications, 2025).

Substrate in data set [1]: CCCC(=O)Oc1ccc([N+](=O)[O-])cc1
The data set can be described thus: purified protein. The class given is biochemical, Kibdelosporangium banguiense. Conditions: 10 mM potassium phosphate pH 8.0 (stock buffer), 50 °C, 3 min, 0.5 µg/mL enzyme, 0.2-1.8 mM pNPB.

Substrate in data set [2]: CCCC(=O)Oc1ccc([N+](=O)[O-])cc1
The data set can be described thus: purified protein. It is filed as biochemical, unidentified prokaryotic organism. Conditions: 10 mM potassium phosphate pH 8.0 (stock buffer), 50 °C, 3 min, 0.5 µg/mL enzyme, 0.2-1.8 mM pNPB.

B1: KbPETase (APET-14) (Kibdelosporangium banguiense) (protein)
chain: DEIGQAPTAANITGDGSFSTSSSAIFGQSGFGGGTAYYPNTAGKYPVVAFAPGFLSDWNALNWLGPRVASWGFVVVGVNTNTPFDFPDARGDQLLAALNWAVNSAPAAVRDKADGSRRGVSGWSMGGGGTLEALAKDTTGTVKAGVPLAPWHTNKTWSKVTEPVFIIGGQNDSVAAPASHAIPFYNSLGGPKSYLERAGADHFFPTKSNGTVSRAVVSFFKRHVSADTRFTPFLCGFSGLDVSNFRSNSC
notes: predicted signal peptide (SignalP) removed; N-terminal His-tag, pET-28a(+) NdeI/NotI; E. coli BL21(DE3); Ni-NTA purified
The Km is the concentration of substrate that gives half-maximal velocity. By kcat is commonly meant the number of substrate molecules converted per active site and unit of time at saturation. In general, kcat/Km refers to the turnover number divided by the Michaelis constant. As to B1, in “purified protein [1]”, the Km is 1040 ± 201 µM, the kcat turned out to be 0.27 ± 0.021 s⁻¹ and the kcat/Km is 263 ± 31 M⁻¹ s⁻¹.

B2: LCC (unidentified prokaryotic organism) (protein)
chain: QSNPYQRGPNPTRSALTADGPFSVATYTVSRLSVSGFGGGVIYYPTGTSLTFGGIAMSPGYTADASSLAWLGRRLASHGFVVLVINTNSRFDYPDSRASQLSAALNYLRTSSPSAVRARLDANRLAVAGHSMGGGGTLRIAEQNPSLKAAVPLTPWHTDKTFNTSVPVLIVGAEADTVAPVSQHAIPFYQNLPSTTPKVYVELDNASHFAPNSNNAAISVYTISWMKLWVDNDTRYRQFLCNVNDPALSDFRTNNRHCQ
notes: wild-type LCC (LCC-ICCG is a separate variant)
As for B2, in the data set “purified protein [2]”, the Michaelis constant (Km) turned out to be 1053 ± 289 µM, the catalytic constant (kcat) came to 0.186 ± 0.021 s⁻¹ and the kcat/Km was found to be 208 ± 17 M⁻¹ s⁻¹.
